In PMC4586518 (2015):

Biological target: Melanocortin-1 receptor (MC-1R) (Mus musculus, UniProt Q01727)
Experiment: radioligand competition binding with [125I]-α-MSH on B16 cells

Chain of Melanocortin-1 receptor (MC-1R) (Q01727 whole entry): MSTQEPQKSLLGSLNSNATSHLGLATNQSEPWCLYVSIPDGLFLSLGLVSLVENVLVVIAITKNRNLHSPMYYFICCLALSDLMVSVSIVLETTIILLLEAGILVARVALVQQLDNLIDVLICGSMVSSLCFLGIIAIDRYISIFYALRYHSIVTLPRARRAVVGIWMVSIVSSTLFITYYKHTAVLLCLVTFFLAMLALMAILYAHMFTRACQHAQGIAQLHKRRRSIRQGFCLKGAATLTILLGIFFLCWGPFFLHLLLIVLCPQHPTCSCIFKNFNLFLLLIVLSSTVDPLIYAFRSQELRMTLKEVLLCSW

Kd: 88 nM
Binder: SYSMEHFR [ACTH(1-8)]
